Assay results from article PMC9482650, “Quantitative fragmentomics allow affinity mapping of interactomes” (Nature Communications, 2022).

T1: APBA3_1, O96018
T1 sequence (O96018 389-490, limits assumed, looked up): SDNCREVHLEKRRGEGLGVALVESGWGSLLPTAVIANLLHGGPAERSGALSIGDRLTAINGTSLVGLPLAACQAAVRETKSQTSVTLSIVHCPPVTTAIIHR

T2: DVL3, Q92997
T2 sequence (Q92997 244-331, limits assumed, looked up): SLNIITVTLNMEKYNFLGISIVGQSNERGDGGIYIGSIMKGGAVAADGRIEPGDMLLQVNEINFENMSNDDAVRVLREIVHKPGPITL

T3: FRMPD1, Q5SYB0
T3 sequence (Q5SYB0 52-145, limits assumed, looked up): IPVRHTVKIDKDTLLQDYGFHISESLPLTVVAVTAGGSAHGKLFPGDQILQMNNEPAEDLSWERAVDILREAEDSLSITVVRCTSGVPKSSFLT

T4: HTRA4, P83105
T4 sequence (P83105 378-476, limits assumed, looked up): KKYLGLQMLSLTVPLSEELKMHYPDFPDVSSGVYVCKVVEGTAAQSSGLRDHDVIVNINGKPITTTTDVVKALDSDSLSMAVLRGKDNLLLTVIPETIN

T5: PDZD7_3, Q9H5P4
T5 sequence (Q9H5P4 857-944, limits assumed, looked up): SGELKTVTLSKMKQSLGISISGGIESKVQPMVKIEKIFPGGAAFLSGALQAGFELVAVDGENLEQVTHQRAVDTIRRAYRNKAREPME

T6: PTPN13_1, Q12923
T6 sequence (Q12923 1088-1188, limits assumed, looked up): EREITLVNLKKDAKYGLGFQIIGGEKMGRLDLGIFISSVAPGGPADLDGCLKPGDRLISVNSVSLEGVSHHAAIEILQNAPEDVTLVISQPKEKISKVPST

T7: RAPGEF6, Q8TEU7
T7 sequence (Q8TEU7 525-625, limits assumed, looked up): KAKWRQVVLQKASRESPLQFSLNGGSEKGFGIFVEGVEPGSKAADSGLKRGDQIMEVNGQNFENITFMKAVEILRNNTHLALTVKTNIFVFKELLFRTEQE

T8: RHPN1, Q8TCX5
T8 sequence (Q8TCX5 508-602, limits assumed, looked up): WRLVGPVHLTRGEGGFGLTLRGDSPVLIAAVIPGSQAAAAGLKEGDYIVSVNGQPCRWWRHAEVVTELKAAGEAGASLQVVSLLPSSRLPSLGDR

T9: SIPA1L2, Q9P2F8
T9 sequence (Q9P2F8 945-1036, limits assumed, looked up): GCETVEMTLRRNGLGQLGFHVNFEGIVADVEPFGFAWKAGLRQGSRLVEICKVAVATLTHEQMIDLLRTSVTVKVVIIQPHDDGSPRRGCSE

T10: SNTG2, Q9NY99
T10 sequence (Q9NY99 68-166, limits assumed, looked up): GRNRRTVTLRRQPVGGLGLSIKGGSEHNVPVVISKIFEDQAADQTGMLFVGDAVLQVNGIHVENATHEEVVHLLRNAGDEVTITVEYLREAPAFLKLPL

T11: TIAM2, Q8IVF5
T11 sequence (Q8IVF5 885-986, limits assumed, looked up): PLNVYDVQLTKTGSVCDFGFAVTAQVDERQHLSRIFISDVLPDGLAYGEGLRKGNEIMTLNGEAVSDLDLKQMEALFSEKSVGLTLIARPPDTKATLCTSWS

B1: KIRREL2, Q6UWL6 (peptide)
chain: PSHPRLQTHV

Each binder was assayed against T1, APBA3_1, O96018 (assay: holdup assay). Details: plain residues with an end cap or a label only (N-terminal biotin on a linker: ado-ado).
Parameters: key: below the threshold = too weak to quantify, mostly under pKd 3.1 to 4

pKd | Binder
below the threshold | B1

These binders were tested against ARHGEF12, Q9NZN5-2 (assay: holdup assay). Details: plain residues with an end cap or a label only (N-terminal biotin on a linker: ado-ado).
Sequence of ARHGEF12, Q9NZN5-2 (Q9NZN5 other isoform, or with tags, fused parts or gaps): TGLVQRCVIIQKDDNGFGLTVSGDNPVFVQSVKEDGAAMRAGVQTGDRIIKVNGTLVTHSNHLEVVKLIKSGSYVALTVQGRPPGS
Parameters: key: below the threshold = too weak to quantify, mostly under pKd 3.1 to 4

pKd | Binder
4.26 | B1

The binders below were run against DLG2_3, Q15700 (assay: holdup assay). Details: plain residues with an end cap or a label only (N-terminal biotin on a linker: ado-ado).
Parameters: key: below the threshold = too weak to quantify, mostly under pKd 3.1 to 4

pKd | Binder
4.26 | B1

Each binder was assayed against T2, DVL3, Q92997 (assay: holdup assay). Details: plain residues with an end cap or a label only (N-terminal biotin on a linker: ado-ado).
Parameters: key: below the threshold = too weak to quantify, mostly under pKd 3.1 to 4

pKd | Binder
below the threshold | B1

What follows are binders tested against T3, FRMPD1, Q5SYB0 (assay: holdup assay). Details: plain residues with an end cap or a label only (N-terminal biotin on a linker: ado-ado).
Parameters: key: below the threshold = too weak to quantify, mostly under pKd 3.1 to 4

pKd | Binder
below the threshold | B1

The binders below were run against FRMPD2_1, Q68DX3 (assay: holdup assay). Details: plain residues with an end cap or a label only (N-terminal biotin on a linker: ado-ado).
Sequence of FRMPD2_1, Q68DX3 (Q68DX3 770-861): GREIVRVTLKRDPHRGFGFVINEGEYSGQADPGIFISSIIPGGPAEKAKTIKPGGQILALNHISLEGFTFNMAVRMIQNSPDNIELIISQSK
Parameters: key: below the threshold = too weak to quantify, mostly under pKd 3.1 to 4

pKd | Binder
below the threshold | B1

What follows are binders tested against FRMPD2_2, Q68DX3 (assay: holdup assay). Details: plain residues with an end cap or a label only (N-terminal biotin on a linker: ado-ado).
Sequence of FRMPD2_2, Q68DX3 (Q68DX3 944-1038): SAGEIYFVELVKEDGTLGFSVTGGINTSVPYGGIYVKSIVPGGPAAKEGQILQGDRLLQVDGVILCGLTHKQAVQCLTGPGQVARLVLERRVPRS
Parameters: key: below the threshold = too weak to quantify, mostly under pKd 3.1 to 4

pKd | Binder
below the threshold | B1

These binders were tested against FRMPD2_3, Q68DX3 (assay: holdup assay). Details: plain residues with an end cap or a label only (N-terminal biotin on a linker: ado-ado).
Sequence of FRMPD2_3, Q68DX3 (Q68DX3 1073-1166): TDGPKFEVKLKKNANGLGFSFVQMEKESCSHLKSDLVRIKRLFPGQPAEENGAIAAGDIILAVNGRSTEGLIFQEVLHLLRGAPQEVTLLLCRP
Parameters: key: below the threshold = too weak to quantify, mostly under pKd 3.1 to 4

pKd | Binder
below the threshold | B1

These binders were tested against FRMPD4, Q14CM0 (assay: holdup assay). Details: plain residues with an end cap or a label only (N-terminal biotin on a linker: ado-ado).
Sequence of FRMPD4, Q14CM0 (Q14CM0 67-160): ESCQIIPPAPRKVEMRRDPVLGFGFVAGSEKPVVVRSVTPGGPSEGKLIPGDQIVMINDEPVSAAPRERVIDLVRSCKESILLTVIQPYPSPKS
Parameters: key: below the threshold = too weak to quantify, mostly under pKd 3.1 to 4

pKd | Binder
below the threshold | B1

Each binder was assayed against GRASP, Q7Z6J2 (assay: holdup assay). Details: plain residues with an end cap or a label only (N-terminal biotin on a linker: ado-ado).
Sequence of GRASP, Q7Z6J2 (Q7Z6J2 96-193): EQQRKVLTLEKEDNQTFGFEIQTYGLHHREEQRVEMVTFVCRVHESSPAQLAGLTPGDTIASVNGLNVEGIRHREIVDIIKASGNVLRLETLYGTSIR
Parameters: key: below the threshold = too weak to quantify, mostly under pKd 3.1 to 4

pKd | Binder
4.18 | B1

The binders below were run against GRIP2_4, Q9C0E4 (assay: holdup assay). Details: plain residues with an end cap or a label only (N-terminal biotin on a linker: ado-ado).
Sequence of GRIP2_4, Q9C0E4 (Q9C0E4 446-548): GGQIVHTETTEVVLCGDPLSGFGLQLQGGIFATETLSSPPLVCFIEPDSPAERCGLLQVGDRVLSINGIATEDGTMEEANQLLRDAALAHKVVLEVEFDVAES
Parameters: key: below the threshold = too weak to quantify, mostly under pKd 3.1 to 4

pKd | Binder
below the threshold | B1

These binders were tested against T4, HTRA4, P83105 (assay: holdup assay). Details: plain residues with an end cap or a label only (N-terminal biotin on a linker: ado-ado).
Parameters: key: below the threshold = too weak to quantify, mostly under pKd 3.1 to 4

pKd | Binder
3.6 | B1

Each binder was assayed against Inadl_6, Q8NI35 (assay: holdup assay). Details: plain residues with an end cap or a label only (N-terminal biotin on a linker: ado-ado).
Sequence of Inadl_6, Q8NI35 (Q8NI35 1058-1167): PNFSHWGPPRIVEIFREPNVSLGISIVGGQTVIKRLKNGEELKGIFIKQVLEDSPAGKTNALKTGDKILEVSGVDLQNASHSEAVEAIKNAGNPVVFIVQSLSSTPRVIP
Parameters: key: below the threshold = too weak to quantify, mostly under pKd 3.1 to 4

pKd | Binder
below the threshold | B1

The binders below were run against Inadl_8, Q8NI35 (assay: holdup assay). Details: plain residues with an end cap or a label only (N-terminal biotin on a linker: ado-ado).
Sequence of Inadl_8, Q8NI35 (Q8NI35 1425-1530): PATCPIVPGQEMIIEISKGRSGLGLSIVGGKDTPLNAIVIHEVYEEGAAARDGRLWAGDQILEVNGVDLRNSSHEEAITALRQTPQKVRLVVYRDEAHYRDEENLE
Parameters: key: below the threshold = too weak to quantify, mostly under pKd 3.1 to 4

pKd | Binder
3.61 | B1

Each binder was assayed against LNX1_1, Q8TBB1 (assay: holdup assay). Details: plain residues with an end cap or a label only (N-terminal biotin on a linker: ado-ado).
Sequence of LNX1_1, Q8TBB1 (Q8TBB1 261-371): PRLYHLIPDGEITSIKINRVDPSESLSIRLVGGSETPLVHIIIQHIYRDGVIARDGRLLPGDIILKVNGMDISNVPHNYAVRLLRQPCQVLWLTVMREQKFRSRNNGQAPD
Parameters: key: below the threshold = too weak to quantify, mostly under pKd 3.1 to 4

pKd | Binder
below the threshold | B1

Each binder was assayed against LNX1_2, Q8TBB1 (assay: holdup assay). Details: plain residues with an end cap or a label only (N-terminal biotin on a linker: ado-ado).
Sequence of LNX1_2, Q8TBB1 (Q8TBB1 371-470): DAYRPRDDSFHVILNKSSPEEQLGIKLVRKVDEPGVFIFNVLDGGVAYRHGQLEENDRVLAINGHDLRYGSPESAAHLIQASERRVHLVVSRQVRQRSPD
Parameters: key: below the threshold = too weak to quantify, mostly under pKd 3.1 to 4

pKd | Binder
below the threshold | B1

Each binder was assayed against MAGI2_3, Q86UL8 (assay: holdup assay). Details: plain residues with an end cap or a label only (N-terminal biotin on a linker: ado-ado).
Sequence of MAGI2_3, Q86UL8 (Q86UL8 600-682): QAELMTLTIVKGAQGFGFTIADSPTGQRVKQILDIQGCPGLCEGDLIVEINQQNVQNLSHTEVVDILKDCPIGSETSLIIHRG
Parameters: key: below the threshold = too weak to quantify, mostly under pKd 3.1 to 4

pKd | Binder
3.67 | B1

These binders were tested against MAGI2_6, Q86UL8 (assay: holdup assay). Details: plain residues with an end cap or a label only (N-terminal biotin on a linker: ado-ado).
Sequence of MAGI2_6, Q86UL8 (Q86UL8 1141-1229): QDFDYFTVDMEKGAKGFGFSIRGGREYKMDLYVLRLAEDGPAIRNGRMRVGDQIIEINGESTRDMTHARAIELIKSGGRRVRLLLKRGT
Parameters: key: below the threshold = too weak to quantify, mostly under pKd 3.1 to 4

pKd | Binder
below the threshold | B1

These binders were tested against NHERF4_4, Q86UT5 (assay: holdup assay). Details: plain residues with an end cap or a label only (N-terminal biotin on a linker: ado-ado).
Sequence of NHERF4_4, Q86UT5 (Q86UT5 464-550): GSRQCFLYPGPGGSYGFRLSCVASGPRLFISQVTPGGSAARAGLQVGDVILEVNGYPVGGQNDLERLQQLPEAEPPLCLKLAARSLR
Parameters: key: below the threshold = too weak to quantify, mostly under pKd 3.1 to 4

pKd | Binder
below the threshold | B1

Each binder was assayed against T5, PDZD7_3, Q9H5P4 (assay: holdup assay). Details: plain residues with an end cap or a label only (N-terminal biotin on a linker: ado-ado).
Parameters: key: below the threshold = too weak to quantify, mostly under pKd 3.1 to 4

pKd | Binder
4.61 | B1

The binders below were run against PDZRN4_1, Q6ZMN7 (assay: holdup assay). Details: plain residues with an end cap or a label only (N-terminal biotin on a linker: ado-ado).
Sequence of PDZRN4_1, Q6ZMN7 (Q6ZMN7 213-318): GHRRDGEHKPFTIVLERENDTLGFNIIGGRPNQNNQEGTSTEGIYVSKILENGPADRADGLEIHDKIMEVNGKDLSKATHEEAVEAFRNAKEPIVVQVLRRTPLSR
Parameters: key: below the threshold = too weak to quantify, mostly under pKd 3.1 to 4

pKd | Binder
below the threshold | B1

These binders were tested against T6, PTPN13_1, Q12923 (assay: holdup assay). Details: plain residues with an end cap or a label only (N-terminal biotin on a linker: ado-ado).
Parameters: key: below the threshold = too weak to quantify, mostly under pKd 3.1 to 4

pKd | Binder
below the threshold | B1

Each binder was assayed against T7, RAPGEF6, Q8TEU7 (assay: holdup assay). Details: plain residues with an end cap or a label only (N-terminal biotin on a linker: ado-ado).
Parameters: key: below the threshold = too weak to quantify, mostly under pKd 3.1 to 4

pKd | Binder
below the threshold | B1

The binders below were run against T8, RHPN1, Q8TCX5 (assay: holdup assay). Details: plain residues with an end cap or a label only (N-terminal biotin on a linker: ado-ado).
Parameters: key: below the threshold = too weak to quantify, mostly under pKd 3.1 to 4

pKd | Binder
4.11 | B1

What follows are binders tested against T9, SIPA1L2, Q9P2F8 (assay: holdup assay). Details: plain residues with an end cap or a label only (N-terminal biotin on a linker: ado-ado).
Parameters: key: below the threshold = too weak to quantify, mostly under pKd 3.1 to 4

pKd | Binder
below the threshold | B1

The binders below were run against T10, SNTG2, Q9NY99 (assay: holdup assay). Details: plain residues with an end cap or a label only (N-terminal biotin on a linker: ado-ado).
Parameters: key: below the threshold = too weak to quantify, mostly under pKd 3.1 to 4

pKd | Binder
below the threshold | B1

These binders were tested against T11, TIAM2, Q8IVF5 (assay: holdup assay). Details: plain residues with an end cap or a label only (N-terminal biotin on a linker: ado-ado).
Parameters: key: below the threshold = too weak to quantify, mostly under pKd 3.1 to 4

pKd | Binder
3.73 | B1
